From patent publication US20220153851A1 (Five Prime, published 2022)
Positions count from the first letter of the chain named. Where two headings read alike, the source gives them in different places. One block for each binder: values may come before it.

Columns and labels:
cynoCSF1R ECD-Fc [1] = molecular target: T1, cynoCSF1R ECD-Fc (cynomolgus); assay: competition ELISA, blocking of human CSF1 binding to cynoCSF1R ECD-Fc
T1 construct: also called cynomolgus CSF1R ECD
Procedure: (§1) The humanized antibodies, along with the parental chimeric antibodies (cAbs), were tested for their ability to block human CSF1 binding to human and cynomolgus CSF1R ECD, as follows.
(§2) Recombinant Human CSF1 (M-CSF; R&D Systems) was biotinylated using an NH₂-Biotin Labeling Kit (Dojindo Molecular Technologies). One hundred μl of 1 μg/ml biotinylated CSF1 in PBST/0.1% BSA was added to the wells of Reacti-Bind Streptavidin coated plates (Pierce) pre-blocked with SuperBlock blocking buffer (Pierce) according to the manufacturer's instructions. Fifty μl of 0.5× serial dilutions of the humanized antibody or parental chimeric antibody, beginning with 2000 ng/ml, was incubated with 50 ng/ml hCSF1R ECD.506-Fc (SEQ ID NO: 6; FivePrime Therapeutics) or 50 ng/ml cynoCSF1R ECD-Fc (FivePrime Therapeutics, SEQ ID NO: 8, but without the 19 amino acid leader sequence) in 100 μl PBST/0.1% BSA for 90 min at RT, after which the admix was transferred to one or more wells of a ligand-coated plate. After 90 min at RT, wells were washed with PBST, and a 1:5000 dilution of an Fc-fragment-specific peroxidase-conjugated goat anti-human IgG (Jackson Immuno Research) in PBST/0.1% BSA was added to each well. After incubation at RT for 60 min, wells were washed with PBST/0.1% BSA, and o-phenylenediamine dihydrochloride peroxidase substrate (Sigma) was added to each well. After incubation at RT for 30 min, A450 values of each well were read directly on a SpectraMaxPlus spectrophotometer with SoftMaxPro software (Molecular Devices).

[2] = molecular target: T2, human CSF1R on CSF1R (SEQ ID NO: 2)-transfected CHO cells (human, UniProt P07333 20-972); assay: cell-based or functional assay
hCSF1R ECD.506-Fc = molecular target: T3, hCSF1R ECD.506-Fc (human); assay: ELISA, plate coated with human CSF1R ECD-Fc
T3 construct: also called human CSF1R ECD-Fc fusion protein; human CSF1R ECD
Procedure: (§3) Ninety-six well clear-bottom ELISA plates were coated overnight with 1 μg/ml recombinant hCSF1R ECD.506-Fc (SEQ ID NO: 6; FivePrime Therapeutics) or Human M-CSF R Fc Chimera (R&D Systems) in PBS. The next morning, wells were washed four times with 0.05% Tween20 in PBS (PBST) and blocked with Blocker-Blotto (Pierce). Fifty μl of 0.5× serial dilutions of the humanized antibody or parental chimeric antibody, beginning with 2000 ng/ml, diluted 1:1 in Blocker-Blotto were added to the CSF1R-coated wells. After incubation at room temperature (RT) for 90 min, wells were washed four times with PBST, and a 1:5000 dilution of a peroxidase-conjugated Goat anti-Human kappa Light chain antibody (Sigma) in Blocker-Blotto was added to each well. After incubation at RT for 60 min, wells were washed four times with PBST, and 50 μl o-phenylenediamine dihydrochloride peroxidase substrate (Sigma) was added to each well. After incubation at RT for 30 min, A450 values of each well were read directly on a SpectraMaxPlus spectrophotometer with SoftMaxPro software (Molecular Devices).

cynoCSF1R ECD-Fc [3] = molecular target: T1, cynoCSF1R ECD-Fc; assay: competition ELISA, blocking of human IL34 binding to cynoCSF1R ECD-Fc (curve-fit value far beyond the range tested); blocking of human IL34 binding to cynoCSF1R ECD
Procedure: Recombinant Human CSF1 (M-CSF; R&D Systems) was biotinylated using an NH₂-Biotin Labeling Kit (Dojindo Molecular Technologies). One hundred μl of 1 μg/ml biotinylated CSF1 in PBST/0.1% BSA was added to the wells of Reacti-Bind Streptavidin coated plates (Pierce) pre-blocked with SuperBlock blocking buffer (Pierce) according to the manufacturer's instructions. […] After incubation at RT for 30 min, A450 values of each well were read directly on a SpectraMaxPlus spectrophotometer with SoftMaxPro software (Molecular Devices).
The humanized antibodies were tested for their ability to block human IL34 binding to human CSF1R ECD. The blocking activity of each humanized antibody was determined as described above for blocking of CSF1, except recombinant human IL34 (FivePrime Therapeutics; SEQ ID NO: 68) was biotinylated using an NH2-Biotin Labeling Kit (Dojindo Molecular Technologies), and then 100 μl of 1 μg/ml biotinylated recombinant IL34 in PBST/0.1% BSA was added to the wells of Reacti-Bind Streptavidin coated plates (Pierce) pre-blocked with SuperBlock blocking buffer (Pierce) according to the manufacturer's instructions.

[4] = molecular target: T2, human CSF1R on CSF1R (SEQ ID NO: …); assay: cell-based or functional assay; remark: listed apart in the source
[5] = molecular target: T2, human CSF1R on CSF1R (SEQ ID NO: …); assay: cell-based or functional assay; remark: listed apart in the source
cynoCSF1R ECD-Fc [6] = molecular target: T1, cynoCSF1R ECD-Fc; assay: ELISA, plate coated with cynoCSF1R ECD-Fc
Procedure: as §3
The binding curve for each humanized antibody binding to cynomolgus CSF1R ECD was determined as described above for human CSF1R, except the wells of the clear-bottom ELISA plates were coated overnight with 2 μg/ml recombinant cynoCSF1R ECD-Fc (FivePrime Therapeutics, SEQ ID NO: 8, but without the 19 amino acid leader sequence).

hCSF1R ECD.506 = molecular target: T4, hCSF1R ECD.506 (human, UniProt P07333 20-506); assay: SPR Biacore T100, antibody captured on anti-human IgG, hCSF1R ECD.506 as analyte, 1:1 model
T4 construct: also called human CSF1R ECD
Procedure: The kₐ, kd, and KD for binding to human CSF1R ECD was determined for each of the humanized antibodies as follows.
Binding kinetics of anti-CSF1R humanized antibodies to CSF1R ECD was determined using Biacore T100 Surface Plasmon Resonance (SPR) (GE Healthcare Life Sciences, Piscataway, N.Y.). Each of the humanized anti-CSF1R antibodies was captured on a CM5 sensor chip immobilized with anti-Human IgG antibody using the Human antibody capture kit (GE Healthcare Life Sciences, Piscataway, N.Y.) at 150 RU so that the Rmax value for hCSF1R ECD.506 (SEQ ID NO: 5) binding was 100 RU. Rmax values of less than 150 RU are recommended for accurately determining kinetic values. […] The association constant, dissociation constant, affinity, and binding capacity of each of the Fabs for human CSF1R ECD was calculated using the Biacore T100 Evaluation software package using the 1:1 binding model.

mCSF1R ECD-Fc = molecular target: T5, mCSF1R ECD-Fc (mouse); assay: ELISA, plate coated with mCSF1R ECD-Fc, detection anti-human kappa-HRP, A450
T5 construct: also called mouse CSF1R ECD
Procedure: as §3
The binding curve for each humanized antibody binding to mouse CSF1R ECD was determined as described above for human CSF1R, except the wells of the clear-bottom ELISA plates were coated overnight with 2 μg/ml recombinant mCSF1R ECD-Fc (FivePrime Therapeutics, SEQ ID NO: 93).

cynoCSF1R ECD-Fc [7] = molecular target: T1, cynoCSF1R ECD-Fc; assay: competition ELISA, blocking of human IL34 binding to cynoCSF1R ECD-Fc
cynoCSF1R ECD-Fc [8] = molecular target: T1, cynoCSF1R ECD-Fc; assay: competition ELISA, blocking of human CSF1 binding to cynoCSF1R ECD-Fc (curve-fit value beyond the range tested)
Procedure: as §2

[9] = molecular target: T2, human CSF1R on CSF1R (SEQ ID NO: …); assay: cell-based or functional assay; remark: listed apart in the source
cynoCSF1R ECD-Fc [10] = molecular target: T1, cynoCSF1R ECD-Fc; assay: competition ELISA, blocking of human CSF1 binding to cynoCSF1R ECD-Fc; blocking of human CSF1 binding to cynoCSF1R ECD
Procedure: as §1
as §2, with “After incubation at RT for 60 min, wells were washed with PBST/0.1% BSA, and o-phenylenediamine dihydrochloride peroxidase substrate (Sigma) was added to each well.” left out

T2 sequence (P07333 20-972): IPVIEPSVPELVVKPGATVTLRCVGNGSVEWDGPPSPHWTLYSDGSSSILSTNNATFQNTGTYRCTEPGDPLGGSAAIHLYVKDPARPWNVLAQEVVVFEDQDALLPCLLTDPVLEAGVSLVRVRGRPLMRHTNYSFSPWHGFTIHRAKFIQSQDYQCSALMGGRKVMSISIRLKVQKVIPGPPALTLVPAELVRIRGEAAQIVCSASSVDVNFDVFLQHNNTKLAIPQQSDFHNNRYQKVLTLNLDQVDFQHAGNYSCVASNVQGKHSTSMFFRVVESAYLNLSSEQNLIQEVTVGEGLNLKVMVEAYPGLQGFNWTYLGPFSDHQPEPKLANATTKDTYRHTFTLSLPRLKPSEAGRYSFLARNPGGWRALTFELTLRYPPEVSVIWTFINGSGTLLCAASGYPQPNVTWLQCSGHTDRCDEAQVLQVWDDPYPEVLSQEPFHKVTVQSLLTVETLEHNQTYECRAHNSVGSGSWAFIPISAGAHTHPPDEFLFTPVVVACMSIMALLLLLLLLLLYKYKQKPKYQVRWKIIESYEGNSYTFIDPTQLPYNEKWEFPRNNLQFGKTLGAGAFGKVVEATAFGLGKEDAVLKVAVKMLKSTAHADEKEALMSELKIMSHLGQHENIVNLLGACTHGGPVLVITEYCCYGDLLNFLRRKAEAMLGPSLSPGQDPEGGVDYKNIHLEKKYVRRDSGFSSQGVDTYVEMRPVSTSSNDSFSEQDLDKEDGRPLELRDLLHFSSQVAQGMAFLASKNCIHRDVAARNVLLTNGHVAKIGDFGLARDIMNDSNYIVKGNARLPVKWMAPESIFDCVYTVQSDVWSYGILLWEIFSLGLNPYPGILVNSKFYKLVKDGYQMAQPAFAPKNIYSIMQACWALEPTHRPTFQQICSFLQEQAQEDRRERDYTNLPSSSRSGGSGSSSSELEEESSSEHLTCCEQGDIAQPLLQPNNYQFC
T4 sequence (P07333 20-506): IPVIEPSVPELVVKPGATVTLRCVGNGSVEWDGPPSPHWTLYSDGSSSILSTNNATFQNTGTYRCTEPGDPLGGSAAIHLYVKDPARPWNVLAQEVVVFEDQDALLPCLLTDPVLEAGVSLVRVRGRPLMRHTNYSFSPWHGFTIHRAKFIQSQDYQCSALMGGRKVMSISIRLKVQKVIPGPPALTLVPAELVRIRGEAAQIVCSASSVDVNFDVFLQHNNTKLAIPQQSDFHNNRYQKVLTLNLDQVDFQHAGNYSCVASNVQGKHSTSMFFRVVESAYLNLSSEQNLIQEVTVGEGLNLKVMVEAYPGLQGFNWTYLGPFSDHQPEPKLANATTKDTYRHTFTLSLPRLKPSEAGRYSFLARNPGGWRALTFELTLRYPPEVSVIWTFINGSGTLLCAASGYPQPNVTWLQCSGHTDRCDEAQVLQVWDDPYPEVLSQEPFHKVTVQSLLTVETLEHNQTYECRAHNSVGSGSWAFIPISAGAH
T1 sequence (chain, as listed by the source): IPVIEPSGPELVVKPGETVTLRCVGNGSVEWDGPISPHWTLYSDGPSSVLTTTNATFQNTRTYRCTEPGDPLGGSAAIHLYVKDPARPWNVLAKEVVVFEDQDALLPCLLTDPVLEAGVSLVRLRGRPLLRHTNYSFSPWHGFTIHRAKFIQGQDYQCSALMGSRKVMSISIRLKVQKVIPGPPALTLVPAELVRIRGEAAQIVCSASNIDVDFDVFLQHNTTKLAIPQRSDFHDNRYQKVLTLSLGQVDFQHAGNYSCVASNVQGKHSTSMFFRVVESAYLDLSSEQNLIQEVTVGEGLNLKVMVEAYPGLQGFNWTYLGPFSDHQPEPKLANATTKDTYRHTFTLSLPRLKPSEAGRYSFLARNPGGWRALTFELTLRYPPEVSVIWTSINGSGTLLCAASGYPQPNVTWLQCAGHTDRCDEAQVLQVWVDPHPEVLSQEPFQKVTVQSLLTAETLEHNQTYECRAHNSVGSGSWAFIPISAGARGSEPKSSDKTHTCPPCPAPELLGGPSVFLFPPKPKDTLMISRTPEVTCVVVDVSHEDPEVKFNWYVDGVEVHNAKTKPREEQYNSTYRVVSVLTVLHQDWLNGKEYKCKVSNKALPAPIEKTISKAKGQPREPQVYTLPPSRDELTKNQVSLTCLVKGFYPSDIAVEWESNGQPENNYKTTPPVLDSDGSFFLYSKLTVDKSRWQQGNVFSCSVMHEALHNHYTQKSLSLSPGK
T5 sequence (chain, as listed by the source limits assumed): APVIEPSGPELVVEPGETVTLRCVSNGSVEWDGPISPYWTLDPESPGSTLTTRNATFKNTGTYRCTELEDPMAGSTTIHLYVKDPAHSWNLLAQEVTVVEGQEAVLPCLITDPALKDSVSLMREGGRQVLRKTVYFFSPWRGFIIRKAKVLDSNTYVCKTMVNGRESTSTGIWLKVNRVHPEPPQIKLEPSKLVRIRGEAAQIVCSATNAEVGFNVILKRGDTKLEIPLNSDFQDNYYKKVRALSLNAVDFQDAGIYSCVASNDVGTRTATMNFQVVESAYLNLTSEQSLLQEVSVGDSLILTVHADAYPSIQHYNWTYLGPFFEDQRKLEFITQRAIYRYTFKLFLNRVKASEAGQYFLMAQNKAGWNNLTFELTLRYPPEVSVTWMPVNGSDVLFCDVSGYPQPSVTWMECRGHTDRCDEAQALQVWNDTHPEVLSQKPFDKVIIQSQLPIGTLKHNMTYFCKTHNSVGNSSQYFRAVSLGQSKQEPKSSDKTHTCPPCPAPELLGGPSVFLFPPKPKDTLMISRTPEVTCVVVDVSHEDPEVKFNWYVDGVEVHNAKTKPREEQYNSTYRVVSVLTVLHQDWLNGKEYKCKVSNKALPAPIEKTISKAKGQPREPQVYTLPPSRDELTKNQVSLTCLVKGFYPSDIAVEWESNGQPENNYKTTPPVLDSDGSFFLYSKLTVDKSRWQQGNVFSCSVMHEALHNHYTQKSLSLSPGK
T3 sequence (chain, as listed by the source limits assumed): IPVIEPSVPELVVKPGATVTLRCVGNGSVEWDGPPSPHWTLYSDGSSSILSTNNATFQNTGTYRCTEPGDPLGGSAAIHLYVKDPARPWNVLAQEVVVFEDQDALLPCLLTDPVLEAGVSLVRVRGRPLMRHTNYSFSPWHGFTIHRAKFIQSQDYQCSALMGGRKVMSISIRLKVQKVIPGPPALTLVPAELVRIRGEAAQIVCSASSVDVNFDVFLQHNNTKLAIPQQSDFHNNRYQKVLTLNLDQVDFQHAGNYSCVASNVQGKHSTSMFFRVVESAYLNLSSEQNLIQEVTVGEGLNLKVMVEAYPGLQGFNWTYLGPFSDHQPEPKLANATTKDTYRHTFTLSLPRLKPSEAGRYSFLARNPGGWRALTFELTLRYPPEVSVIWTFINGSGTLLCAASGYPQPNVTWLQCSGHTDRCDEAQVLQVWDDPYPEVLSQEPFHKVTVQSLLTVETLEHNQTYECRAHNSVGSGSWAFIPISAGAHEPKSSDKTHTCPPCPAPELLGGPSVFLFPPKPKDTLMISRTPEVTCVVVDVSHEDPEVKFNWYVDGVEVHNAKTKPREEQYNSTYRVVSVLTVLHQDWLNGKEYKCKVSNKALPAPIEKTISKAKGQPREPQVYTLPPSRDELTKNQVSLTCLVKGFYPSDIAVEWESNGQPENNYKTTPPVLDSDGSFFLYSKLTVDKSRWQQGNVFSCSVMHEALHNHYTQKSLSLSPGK

- IC50 (cynoCSF1R ECD-Fc [1]): 0.0155 µg/mL
- IC50 (read off the curve), IL34-induced CSF1R phosphorylation [2]: ~0.6 µg/mL
- EC50 (hCSF1R ECD.506-Fc): 0.0146 µg/mL
- IC50 (cynoCSF1R ECD-Fc [3]): > 2 µg/mL
- IC50, inhibition of CSF1-induced CSF1R phosphorylation (head prints 'Human CSF1/Human CSF1R ECD IC50') [4]: 0.928 µg/mL
- IC50, inhibition of IL34-induced CSF1R phosphorylation (head prints 'Human IL34/Human CSF1R ECD IC50') [4]: 0.615 µg/mL
- IC50 (read off the curve), CSF1-induced CSF1R phosphorylation [5]: ~1 µg/mL
- EC50 (cynoCSF1R ECD-Fc [6]): 0.467 µg/mL
- Kd (hCSF1R ECD.506): 1.04 nM
- koff (hCSF1R ECD.506): 0.00369 s⁻¹
- kon (hCSF1R ECD.506): 3.54e+06 M⁻¹ s⁻¹
- binding result (mCSF1R ECD-Fc): no binding (tested: 2000 ng/ml)
B1: h0302-L0H1 (antibody, human IgG4 S228P, kappa, V domains shown)
VH: QVQLVQSGAEVKKPGSSVKVSCKASGYTFSDFNIHWVRQAPGQGLEWMGYINPYTDVTVYNEKFKGRVTITSDKSTSTAYMELSSLRSEDTAVYYCASYFDGTFDYALDYWGQGTLVTVSS
VL: EIVLTQSPATLSLSPGERATLSCRASESVDNYGLSFMNWYQQKPGQAPRLLIYTASNLESGIPARFSGSGSGTDFTLTISSLEPEDFAVYYCQQSKELPWTFGQGTKVEIKR
notes: also called Ab7; huAb 0302-L0H1

- IC50 (cynoCSF1R ECD-Fc [7]): 0.509 µg/mL
- EC50 (hCSF1R ECD.506-Fc): 0.00774 µg/mL
- IC50, inhibition of CSF1-induced CSF1R phosphorylation (head prints 'Human CSF1/Human CSF1R ECD IC50') [4]: 0.384 µg/mL
- IC50, inhibition of IL34-induced CSF1R phosphorylation (head prints 'Human IL34/Human CSF1R ECD IC50') [4]: 0.303 µg/mL
- EC50 (cynoCSF1R ECD-Fc [6]): 0.066 µg/mL
- IC50 (cynoCSF1R ECD-Fc [8]): 89.8 µg/mL
- Kd (hCSF1R ECD.506): 0.57 nM
- koff (hCSF1R ECD.506): 0.000914 s⁻¹
- kon (hCSF1R ECD.506): 1.6e+06 M⁻¹ s⁻¹
- binding result (mCSF1R ECD-Fc): no binding (tested: 2000 ng/ml)
B2: h0302-L2H1 (antibody, human IgG4 S228P, kappa, V domains shown)
VH: B1 VH
VL: B1 VL with L4V, Y40F, G72R
notes: also called Ab9; huAb 0302-L2H1

- IC50 (cynoCSF1R ECD-Fc [7]): 0.0295 µg/mL
- IC50 (read off the curve), CSF1-induced CSF1R phosphorylation [9]: ~0.3 µg/mL
- EC50 (hCSF1R ECD.506-Fc): 0.0114 µg/mL
- IC50, inhibition of CSF1-induced CSF1R phosphorylation (head prints 'Human CSF1/Human CSF1R ECD IC50') [4]: 0.307 µg/mL
- IC50, inhibition of IL34-induced CSF1R phosphorylation (head prints 'Human IL34/Human CSF1R ECD IC50') [4]: 0.312 µg/mL
- EC50 (cynoCSF1R ECD-Fc [6]): 0.0152 µg/mL
- binding result (mCSF1R ECD-Fc): no binding (tested: 2000 ng/ml)
- IC50 (cynoCSF1R ECD-Fc [10]): 0.022 µg/mL
B3: cAb 0301 (antibody, human IgG4 S228P, kappa, V domains shown)
VH: EVQLQQSGPELVRPGASVKMSCKASGYTFTDNYMIWVKQSHGKSLEWIGDINPYNGGTTFNQKFKGKATLTVEKSSSTAYMQLNSLTSEDSAVYYCARESPYFSNLYVMDYWGQGTSVTVSS
VL: NIVLTQSPASLAVSLGQRATISCKASQSVDYDGDNYMNWYQQKPGQPPKLLIYAASNLESGIPARFSGSGSGTDFTLNIHPVEEEDAATYYCHLSNEDLSTFGGGTKLEIKR
